± gives the uncertainty stated by the source.
Experiment: amyloid nucleation score (Sup35N fusion, yeast selection) (log enrichment); library NNK1; higher = more nucleation; inactive = no reads after selection
How it was run: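 Nucleation score: DiMSum log enrichment of output over input reads, centred on the mode score of non-aggregating sequences. Only sequences with at least 100 input reads were kept. Reads came from Illumina sequencing of plasmid inserts before and after 7 days of growth at 30°C without adenine and uracil, in psi-negative yeast expressing Sup35N fused to peptides of 20 random codons after 24 hours of induction with 100 μM copper sulfate.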

| Substance | amyloid nucleation score |
| --- | --- |
| MWEALW | 0.601 ± 0.54 |
| MWNRFWLLDALLWGNYLSQS | 0.043 ± 0.33 |
| MWRKHR | -0.543 ± 0.65 |
| MWVYFVLCKKVAEGVCFIDT | 0.996 ± 0.61 |
| MYASWSVF | -0.223 ± 0.34 |
| MYCGS | -0.279 ± 0.27 |
| MYFVRVSSDA | 0.351 ± 0.54 |
| MYGITKSA | 0.195 ± 0.64 |
| MYREYLGRSRRQFYFGTGKH | 3.82 ± 0.16 |
| MYSLVCNHCAQSISIPSRWS | 3.97 ± 0.11 |
| NAVITESLIDKAPVGSNWDT | -0.498 ± 0.59 |
| NAYLKVIYQRSFGAPNRH | -0.1 ± 0.69 |
| NAYRYMCRCGFLSLRAGWRV | inactive |
| NCECSFWKREGSWGTLVSGM | 0.201 ± 0.51 |
| NCEFIVWGVSSNFEMVFGLM | -0.267 ± 0.9 |
| NCFRLLCFRGLVGQRGL | 0.141 ± 0.59 |
| NCFSMRQRECCRYRMCVNGI | 1.01 ± 0.55 |
| NCRMTGCLSQRRQKECCNRI | -0.755 ± 0.51 |
| NCVVYDIEYICWNIGGKI | 5.71 ± 0.077 |
| NCYGYVEKWWGVCTNDPLGR | -0.133 ± 0.25 |
| NDDNCSSVSWWNKWCSTR | 1.44 ± 0.41 |
| NDHDGEFDD | 0.239 ± 0.57 |
| NDNGVMLVLCEGMY | 0.014 ± 0.32 |
| NDRLFLHGARKLTVLIFVVG | -0.015 ± 0.3 |
| NDRSFYQITKILHPRDASQN | -1.08 ± 0.55 |

| Substance | amyloid nucleation score |
| --- | --- |
| NDTVWVVWMLKELSLYVELV | 0.329 ± 0.53 |
| NDWIFD | inactive |
| NECDVALIRWWG | 0.419 ± 0.45 |
| NELNLYGSEFAFYWVDKLCH | 4.13 ± 0.073 |
| NFARDLKRHVRMG | 0.461 ± 0.35 |
| NFFVDDSDRGQYKFDPFCCG | inactive |
| NFGAQRYHSRLLL | -0.223 ± 0.59 |
| NFGIRGRRTAGLEVRCLRRC | -1.22 ± 2.7 |
| NFKQGNSYVCNSCLGCGVSR | 6.45 ± 0.084 |
| NFLCFGFFRWTVPDWAQFYV | 3.76 ± 0.12 |
| NFLMKWCEINTCLLVSFSYW | 4.5 ± 0.071 |
| NFPKHFSSALRF | -0.081 ± 0.35 |
| NFRNLSYCFQFPMFVARRLK | 1.06 ± 0.67 |
| NFRNSGESSTNYSK | inactive |
| NFSFLGFLSRYGCLFQVSS | 0.582 ± 0.6 |
| NFSLIFENMIALFPYPARKR | 7.742 ± 0.056 |
| NFSRIKYYGSYEVFIFAGNY | 0.398 ± 0.79 |
| NFTSRYEANFTVFSFRAWRL | 0.297 ± 0.36 |
| NFVIFKRFFNFHKNWNGWSR | 3.8 ± 0.07 |
| NFVQLAWLVRWAWEV | -0.088 ± 0.56 |
| NFVSYTFLCCGCVVLILVTS | 0.114 ± 0.28 |
| NGFSDRKLDFHTRHMGH | -0.147 ± 0.36 |
| NGMIFFVIGMNFGCQESSRN | 6.208 ± 0.051 |
| NGNLKRSSEVFHCFGISLEF | 0.694 ± 0.36 |
| NGTWYILSQASFFYELDAYC | -0.012 ± 0.43 |

| Substance | amyloid nucleation score |
| --- | --- |
| NGWIMRR | -0.094 ± 1.5 |
| NGYIKRVFFSVNMFSMHTSF | 0.079 ± 0.48 |
| NHCFLVRWNISKSSRDVSWC | 0.142 ± 0.47 |
| NHHLRPEMQEVCHL | 0.482 ± 0.67 |
| NHVLVVGISNLSSCHWMPNF | 3.14 ± 0.12 |
| NHYCRFHFTLESFLAGHVAN | 1.38 ± 0.23 |
| NHYGSVAGLPPNNHWVSFCV | -0.373 ± 0.99 |
| NIASGFGFPYRGVLSC | 0.184 ± 1 |
| NICMQTRVIRAS | 0.811 ± 0.5 |
| NIEIRVCSRIVGHGLKFPKP | 3.37 ± 0.17 |
| NIGIMNFIVLAFLQ | 6.529 ± 0.062 |
| NINFGVVSYSVYMLL | 6.649 ± 0.054 |
| NISPISYKIVVTIYSYFWLS | 0.452 ± 0.4 |
| NISSIASVWVCVKVRYVSYS | 0.432 ± 0.59 |
| NKCIAKDGDMES | -0.015 ± 0.23 |
| NKRVHWLSGRLWIWYHWWVI | -1.5 ± 1.7 |
| NKSHAHLKVAMSLVCPFKSH | 1.5 ± 0.44 |
| NKSVNLEYGRWVNMVPGLM | inactive |
| NLCFLITNYINRLNFYNFVV | 0.807 ± 0.93 |
| NLCRIRIARLQHGGRSTMSF | 1 ± 0.73 |
| NLCYHWVRNIQNGQRFLCQL | inactive |
| NLGLDVCEYIVVTWLTNDWS | -0.258 ± 0.51 |
| NLINVFTLKWFDITL | 5.686 ± 0.053 |
| NLLSALNMVVFHNLEFYVIF | 2.58 ± 0.25 |
| NLLWNTVIIFDFVRNLWTWS | 0.813 ± 0.72 |

| Substance | amyloid nucleation score |
| --- | --- |
| NLNSMAFV | 0.662 ± 0.56 |
| NLPLLFL | -0.069 ± 0.27 |
| NLPSSKKVLPCFFLRSIYGC | 0.9 ± 0.4 |
| NLRYSFFFNSDNSRVWECS | 0.682 ± 0.35 |
| NLSALLHDHFMGPIDLKFLT | 1.8 ± 0.52 |
| NLSSSRSVVKNLTFQMWNTS | 4.45 ± 0.063 |
| NLTFGYVGHK | 3.91 ± 0.087 |
| NLTHARGVSSVQRGVMSRTG | -0.747 ± 0.6 |
| NLTWAGTLY | -0.875 ± 1.5 |
| NLVWSYFLLGTDSYITTYDW | 0.314 ± 0.79 |
| NMCNLSFLQ | 0.104 ± 1.1 |
| NMFTFLSKRR | -0.928 ± 0.4 |
| NMHLTYETDRFARYVNSKFN | 0.744 ± 0.46 |
| NMHNQVAFISCSFILFDVIN | 6.95 ± 0.07 |
| NMIVKSATEAANSP | 1.25 ± 0.56 |
| NMLVRKAG | -0.036 ± 0.73 |
| NMTFSMPSNINCPFLGLR | 0.29 ± 0.47 |
| NMVLRFQCLWFCFISIPF | 3.16 ± 0.14 |
| NMYKSMNQSTE | -0.705 ± 0.26 |
| NNAHRSVVWRYLVCFSCDFG | 6.454 ± 0.064 |
| NNFSCMDHILSMVKLWDVFG | -0.847 ± 0.59 |
| NNINWVKGKHR | -1.06 ± 2.4 |
| NNLMFNYSGHMVSVKAHSSG | 0.776 ± 0.43 |
| NNQHDGYSIFILDRQPLRAM | 0.488 ± 0.59 |
| NNRCPCYSILWNRWRNKVA | inactive |

| Substance | amyloid nucleation score |
| --- | --- |
| NNSLKCCLFLMSNLKSSRVN | 6.08 ± 0.066 |
| NNVAGCLEFHRYQGMCGRSM | 1.04 ± 0.36 |
| NNYNYLYTYNMQNQKQFIFM | 7.281 ± 0.066 |
| NPCHKMFSRNPHLYMAAVKS | 0.335 ± 0.96 |
| NPFYKT | 0.268 ± 0.37 |
| NPHCVSLKTRIPFVGGSKCG | -0.748 ± 1.2 |
| NPLMTTLATSDMWRNQFISG | 1.38 ± 0.41 |
| NPPWQCGVRHDHLWVTSYHS | -0.481 ± 0.32 |
| NPSNKCLSEPWQDHLLGAWR | 0.758 ± 0.67 |
| NQCYYRAGLFRVDLFCLELA | inactive |
| NQVENTWCMSLRLFSYSHTL | 7.548 ± 0.058 |
| NRFYYKARCRQVGHCT | 0.743 ± 0.46 |
| NRKAPFNQA | -1.09 ± 1.4 |
| NRKRFHGMNDASAAYFREVC | -1.33 ± 2.7 |
| NRLGLGPVSSICGR | -0.339 ± 0.81 |
| NRLKFSLV | -2.62 ± 2.7 |
| NRLNTTDWYSI | -0.342 ± 0.74 |
| NRLRNGPNDRVVRATAPKGF | 0.259 ± 0.4 |
| NRQSNSVVYNARQETFIRHL | 3.39 ± 0.14 |
| NRRCGGASSIRTGNRIWDDW | 2.22 ± 0.23 |
| NRRDDNQCVSWIGVKAKVLS | 0.564 ± 0.43 |
| NRSLKCICRRSVGRRSQNLR | 0.57 ± 0.5 |
| NRTIFVVRHTDFGYLA | 0.661 ± 0.75 |
| NRYMWDFSIAGVGVRLWINS | -0.896 ± 0.55 |
| NSASYII | -0.048 ± 0.24 |

| Substance | amyloid nucleation score |
| --- | --- |
| NSCTGSGGCSWEDKGNWCVK | 0.183 ± 0.28 |
| NSEKLPMHPRGHAGQAWVQS | 0.153 ± 0.45 |
| NSEMCWFFNMISSTLAHLLV | 1.75 ± 0.31 |
| NSFRAAHWSEMVPAELGRSV | -0.513 ± 0.41 |
| NSFSDAYKIVYLHIYRSGGI | -0.448 ± 0.6 |
| NSFVYQWFGYVSFKLFRCTV | 0.316 ± 0.26 |
| NSFWTLVFSGHPACWLTVFI | -0.75 ± 0.59 |
| NSGNHDSCKFFGLLVRQMVG | 0.529 ± 0.46 |
| NSGRVNTLWFCLSDTMLVTS | inactive |
| NSGVVRLFPYFMYRTAWLKS | 0.224 ± 0.41 |
| NSHHKKGHVKRAVRLLHYPV | 0.799 ± 0.84 |
| NSINFFNMFVYWL | 6.26 ± 0.056 |
| NSLCEFSMKMFTYNSMGGFI | 1.86 ± 0.26 |
| NSLLGYLYSYVVFYREHIVI | -0.326 ± 1.2 |
| NSMIVAHKLDCACPASAKDR | 4.94 ± 0.053 |
| NSNCELGKVHFAV | 0.501 ± 0.35 |
| NSRFKNFMSNTHVH | inactive |
| NSRWSIFFASMCDIRLWCVV | 0.755 ± 0.84 |
| NSVVRVIKRSWRTVVLLHDR | -0.621 ± 1.4 |
| NSVWLLTNVLKFGTNVSRHR | 2.57 ± 0.16 |
| NSYWLRCILPM | -0.065 ± 0.3 |
| NTCTMCGWICAFLRPVFCVV | 0.745 ± 1.2 |
| NTFYCCFLFFY | 6.517 ± 0.044 |
| NTGIS | -1.22 ± 1.4 |
| NTHSPSFGFAMIRSGDTEKF | inactive |

| Substance | amyloid nucleation score |
| --- | --- |
| NTHTAWNRIGRTWRQNWTWG | 0.061 ± 0.47 |
| NTKSSVSYYFFMGIIFFSEI | 0.355 ± 0.32 |
| NTLSISDSYVEYETWEVIPV | 1.62 ± 0.5 |
| NTQTFEAFSKSFMDLIVRRF | -0.735 ± 1.2 |
| NTSDDYIDLRYNHKGEAFEG | inactive |
| NTTATLMGHTQPIYSIYSVF | 1.11 ± 0.94 |
| NVDFTSYMLDMM | 0.042 ± 0.41 |
| NVILKDLQVYPEKAVSINRY | 1.05 ± 0.32 |
| NVIVKDLVLDNTFCVARVQA | -0.639 ± 0.42 |
| NVQVKWGQTRVTCWDYGGEH | 0.467 ± 0.34 |
| NVRRLIFIMLKLDAICYWSS | -0.695 ± 1.1 |
| NVVSYFHMAFGWCFNLW | 1.94 ± 0.26 |
| NVVWAYSMAFMTSAFSVNYP | inactive |
| NVWNVFWLNN | inactive |
| NWELRRVTRKWRSGDTSLSD | -2.04 ± 2.4 |
| NWHPISVGSFYIVGLMRHRR | 4.03 ± 0.11 |
| NWMCKHSVGP | 0.665 ± 0.72 |
| NYAARPHSRSLLGAYDCSWS | 0.731 ± 0.47 |
| NYHLGCCNISMF | 7.856 ± 0.047 |
